Measurements taken from a protein production outcome set (Wang et al. 2014).

Assay: label from the status in PepcDB records

Sequence: MSDHHHHDHHLGCACCALPLLELLDQPQLSQDEWQRELETLAPELGKRFPRPGQQESAIFHGGSIRPLAAAGPSRVAALGMSGGRIVAMGDLDDVRAAMASHRPFREIDLDGRALLPGLVDPHMHIMPSALFKSWISLSAFGVTRNSQDGEDAQVLNPDYSYQQIKDKLLPAIAQAKQPGAASNWVLGFGVDPSLMREWVDIKASSLDELAPPDDNIAVFLLNASGHIGYANTAAMKEAGLTPEQIKKCEGVLTEANIIQIMGKIPKRILAKDLLRNLLMVLHDAASRGNTMLFDAGLGSSLKEAEVRLLQLIAKLGLSPVRIAGALYSNELTQMRQWMKLYQPDLNSQDDSHFSIKALKLVADGSNQGLTGFQFSPYKNVAQHPVPDVPPIGLFNFKIPDAPSSENENRLPDSLASYLHLALGSGWPVLVHSNGEQAMELVLDSYQEAISATRADARHLRLRVEHASLLTDATLSRMASMGLSPSFLIGHVGYWGYALQNDILGEARTELLDRCKSARDAGIRISLHSDHFVSPLGSLRMAEQAIYRKMEGAPQEEKPVLNKEECLSHEQALAAVTLDAAWQCHMDHLVGSLEPGKLADMVILGQDPLDDGVTDLRHINVHETWRGGARVYANPNTH
- protein production: failed

Sequence: MVGQIAKEMGLRAYIVGGVVRDILLGKEVWDVDFVVEGNAIELAKELARRHGVNVHPFPEFGTAHLKIGKLKLEFATARRETYPRPGAYPKVEPASLKEDLIRRDFTINAMAISVNLEDYGTLIDYFGGLRDLKDKVIRVLHPVSFIEDPVRILRALRFAGRLNFKLSRSTEKLLKQAVNLGLLKEAPRGRLINEIKLALREDRFLEILELYRKYRVLEEIIEGFQWNEKVLQKLYALRKVVDWHALEFSEERIDYGWLYLLILISNLDYERGKHFLEEMSAPSWVRETYKFMKFKLGSLKEELKKAKENYEVYRLLKPLHTSVLLLLMLEEELKEKIKLYLEKLRKVKLPKEKIEELKKQGLKGKELGERIEELKREIMNKIKLAAALE
- protein production: not failed

Sequence: MSLEAIRIGEINSYSQIPAFTLPYRNGWQLAVEQINAAGGLLGGRPLEVISRDDGGDPGKAVTAAQELLTRHGVHALAGTFLSHVGLAVSDFARQRKVLFMASEPLTDALTWEKGNRYTYRLRPSTYMQAAMLAAEAAKLPITRWATIAPNYEYGQSAVARFKELLLAARPEVTFVAEQWPALYKLDAGPTVQALQQAEPEGLFNVLFGADLPKFVREGRVRGLFAGRQVVSMLTGEPEYLNPLKDEAPEGWIVTGYPWYDIDTAPHRAFVEAYRARWKEDPFVGSLVGYNTLTAMAVAFEKAGGTESETLVETLKDMAFSTPMGPLSFRASDHQSTMGAWVGRTALRDGKGVMVDWRYVDGGSVLPPPEVVSAWRPAGEGHHHHHH
- protein production: not failed

Sequence: MNVPILPTISTSCIVISAILVAIGWALIWKRQVHKHKNIMLWAAFFALTFFIIYAARTIFIGNTAFGGPSSIKVYYTIFLVFHIILATVGGVLGLIQIILAFKDKLHIHRKIGPWASIIWFFTAITGVAVYVLLYVLYPGGETTSLLKATLGL
- protein production: failed

Sequence: MSHPSYPPAPQNDAGAGIPQVPAAPYAYGRQFQGGAQPGYQPGPDSGPYGSPVGAPAKSFMTTWILALLLGSFGVDRFYLGKIGTGIAKLLTAGGFGIWSIVDLIITLTGNARDKQGRPLAGYPENKKKAWIITIVVWFAGLIVGIVSTVLSLTFVAAAVQGAGTDAPVLPSASQEAPAPSSGTASDDGSLTVTMSEGNTVKVSLLNSGYTTEIPGMSYMKPTRGGFLLLEVSWEATAGSSYASPSNFEAFDADGAKGEEIYVEEGLGGLPSGDVAAGEMQRGVIAFDIKNGPTTVVISDDFGDKAATFTLTPAN
- protein production: failed

Sequence: MLELLYTALLYLIQPLIWIRLWVRGRKAPAYRKRWGERYGFYRRPLKPGGIMLHSVSVGETLAAIPLVRALRHRYPDLPITVTTMTPTGSERVQSAFGNDVQHVYLPYDLPDALNRFLNKIDPKLVLIMETELWPNLIAALHKRHIPLVIANARLSARSAAGYAKLGKFVRTLLRRITLIAAQNEEDGERFVALGAKNNQVTVTGSLKFDISVTPQLAAKAVTLRRQWAPHRPVWIATSTHDGEESIVIAAHQALLHQFPNLLLILVPRHPERFPDAINLVRQAGLSYITRSSGEVPSASTQVVVGDTMGELMLLYGIADLAFVGGSLVERGGHNPLEAAAHAIPVLMGPHTFNFKDICARLDQASGLITITDAATLAKEVSSLLTDADYRNFYGRHAVEVLYQNQGALQRLLQLLEPYLPPKTHLEHHHHHH
- protein production: failed
